According to article PMC6713507:

Target: catalytic α subunit of the cAMP-dependent protein kinase A, Cushing's syndrome mutant L205R (PKA-C^L205R) (human)
Test: ITC

- Kd: 3.5 µM
Substance: VPS36-derived peptide (vacuolar protein-sorting–associated protein 36, residues 115 to 130)
